This note sets out measurements from patent US20250333506A1 (NEW YORK UNIVERSITY, published 2025).

The target in assay [1] is T1, cynomolgus Gamma/Delta1A TCR-Fc fusion protein (cynomolgus monkey, biotinylated in vitro with recombinant BirA (AviTag)).
T1 construct: First chain = delta, second = gamma; also called Cyno D1; cyno D1; not shown: Fc portion of mouse IgG, then AviTag and His6 tag at the C-terminus; Fc portion of mouse IgG
The assay is described as follows: bead binding assay (TCR-Fc on streptavidin beads, IgG titrated, flow cytometry); apparent KD.

Assay [2] addresses T2, Cyno D2 (biotinylated (AviTag)).
T2 construct: also called cynomolgus Gamma/Delta2; Cyno D2/G
T2 delta chain: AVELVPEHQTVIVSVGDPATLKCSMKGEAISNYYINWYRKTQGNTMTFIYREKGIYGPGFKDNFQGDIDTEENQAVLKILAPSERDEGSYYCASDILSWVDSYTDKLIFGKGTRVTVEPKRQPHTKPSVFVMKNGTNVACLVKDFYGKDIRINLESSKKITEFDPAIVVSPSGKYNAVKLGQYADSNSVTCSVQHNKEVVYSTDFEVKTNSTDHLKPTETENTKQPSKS
T2 gamma chain: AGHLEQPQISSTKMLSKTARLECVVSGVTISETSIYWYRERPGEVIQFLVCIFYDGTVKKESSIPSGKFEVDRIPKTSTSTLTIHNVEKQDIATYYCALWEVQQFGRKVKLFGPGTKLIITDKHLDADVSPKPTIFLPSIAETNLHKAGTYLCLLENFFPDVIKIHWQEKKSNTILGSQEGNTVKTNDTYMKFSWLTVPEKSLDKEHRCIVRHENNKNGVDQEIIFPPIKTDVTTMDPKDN
Put plainly: bead binding assay: biotinylated TCR-Fc on streptavidin beads, IgG titrated, flow cytometry.

Assay [3] addresses T1, cynomolgus Gamma/Delta1A TCR-Fc fusion …. Put plainly: bead binding assay (TCR-Fc on streptavidin beads, IgG titrated, flow cytometry); apparent KD, s.d. of triplicates.
The target of assay [4] is T2, Cyno D2. The assay is described as follows: bead binding assay: biotinylated TCR-Fc on streptavidin beads, IgG titrated, flow cytometry.
Assay [5] has as its target T2, Cyno D2. Described as above.
The target in assay [6] is T2, Cyno D2. The description is as above.
In assay [7] the target is T3, cell surface-expressed δ1-γ9 TCR on J.RT3-T3.5 Jurkat cells.
T3 construct: whole, on cells; also called Delta1/Gamma9 TCR on the surface; delta1/gamma-9
Put plainly: flow cytometry titration on the D1/G9 TCR Cell Line (JR2 Hi), transduced J.RT3-T3.5 Jurkat cells.

The target of assay [8] is T4, cell surface-expressed δ1-γ8 TCR on J.RT3-T3.5 Jurkat cells.
T4 construct: whole, on cells; also called Delta1 and gamma 8
Put plainly: flow cytometry titration on the D1/G8 TCR Cell Line (9-2 Hi), transduced J.RT3-T3.5 Jurkat cells.

In assay [9] the target is T5, human Delta1 TCR (Fc fusion protein, Delta1 clone and gamma chain not stated).
T5 construct: also called Human Delta1 Fc fusion protein; human delta-1 chain
The assay is described as follows: bead binding titration, flow cytometry (MFI against antibody concentration).

The target of assay [10] is T1, cynomolgus Gamma/Delta1A TCR-Fc fusion …. The assay is described as follows: bead binding assay by the table's title (paragraph 456 gives the same value for Octet BLI, FIG. 22B); apparent KD; apparent KD, IgG format, bead binding assay; measured once.
Assay [11] has the same target. Put plainly: bead binding assay: biotinylated TCR-Fc on streptavidin beads, IgG titrated, flow cytometry.
The target of assay [12] is T6, cell surface-expressed δ1γ2 TCR on J.RT3-T3.5 Jurkat cells.
T6 construct: whole, on cells; Cells were stained with anti-human reagents; species of the transduced chains is not restated; also called Delta1 and gamma 2
Put plainly: flow cytometry titration on the D1/G2 TCR Cell Line (9-10 Hi), transduced J.RT3-T3.5 Jurkat cells.

For assay [13], the target named is T7, cell surface-expressed δ1-γ4 TCR on J.RT3-T3.5 Jurkat cells.
T7 construct: whole, on cells; also called Delta1 and gamma 4; delta1/gamma-4
The assay is described as follows: flow cytometry titration on the D1/G4 TCR Cell Line (DP10 Hi), transduced J.RT3-T3.5 Jurkat cells.

Assay [14] deals with T8, cynomolgus monkey Delta1 Fc fusion protein (Delta1 clone not stated).
T8 construct: also called monkey (cyno) delta-1 chain; monkey Delta1 receptors
Put plainly: bio-layer interferometry (Octet), biotinylated receptor on streptavidin sensor tips, antibody in solution; KD Error 1.33e-012.

For assay [15], the target named is T5, human Delta1 TCR (Fc fusion protein, …). The assay is described as follows: bio-layer interferometry (Octet), biotinylated receptor on streptavidin sensor tips, antibody in solution; KD Error 1.14e-012.
Assay [16] has as its target T9, cell surface-expressed δ1-γ5 TCR on J.RT3-T3.5 Jurkat cells.
T9 construct: whole, on cells; also called Delta1 and gamma 5
Put plainly: flow cytometry titration on the D1/G5 TCR Cell Line (AB Hi), transduced J.RT3-T3.5 Jurkat cells.

The target in assay [17] is T10, cell surface-expressed δ1γ3 TCR on J.RT3-T3.5 Jurkat cells.
T10 construct: whole, on cells; also called Delta1 and gamma 3
Put plainly: flow cytometry titration on the D1/G3 TCR Cell Line (16-3 Hi), transduced J.RT3-T3.5 Jurkat cells.

Residue numbers refer to the chain shown, from its start. Like-named read-outs stand apart in the source and are kept apart here.

B1: Delta1-24 (antibody, V domains shown)
VH: EVQLVESGGGLVQPGGSLRLSCAASGFTVSSSSIHWVRQAPGKGLEWVASIYSSSGYTYYADSVKGRFTISADTSKNTAYLQMNSLRAEDTAVYYCARDPGSYYWYYSGSAYEGYGLDYWGQGTLVTVSS
VL: DIQMTQSPSSLSASVGDRVTITCRASQSVSSAVAWYQQKPGKAPKLLIYAASSLQSGVPSRFSGSRSGTDFTLTISSLQPEDFATYYCQQSNRSYPPLTFGQGTKVEIKR
notes: Tested in the human IgG format
As to B1, the Kd in assay [1] was 1.16 nM. Also, the binding result with Cyno D2 [2] is given as “no binding (tested: 100 nM)”.

B2: Delta1-22 (antibody, V domains shown)
VH: B1 VH
VL: B1 VL with S91R, N92S, S94Y, P96S, P97L, L98I
notes: as for B1
Take B2: the Kd in assay [3] was 0.61 nM. Further, the binding result with Cyno D2 [4] is reported as “no binding (tested: 100 nM)”.

B3: Delta1-26 (antibody, V domains shown)
VH: B1 VH
VL: B1 VL with S91Q, N92Q, S94Y, Y95S, P96Y, P97L, L98I
notes: as for B1
On to B3, for which the Kd in assay [3] amounted to 0.26 nM. The binding result with Cyno D2 [5] was “no binding (tested: 100 nM)”.

B4: Delta1-25 (antibody, V domains shown)
VH: B1 VH
VL: B1 VL with S91I, N92G, S94R, Y95S, P96S, P97L, L98I
notes: as for B1
For the molecule B4, the binding result with Cyno D2 [6] is “no binding (tested: 100 nM)”. Further, the Kd in assay [3] amounted to 0.48 nM.

B5: Delta1-39 (antibody, V domains shown)
VH: B1 VH with V29F, S30T, S31A, S32N, S33D
VL: B1 VL with S91Q, N92S, R93K, S94Y, Y95P, P96F, P97L, L98I
notes: Tested in the human IgG format; also called anti-Delta1-39; Delta-39
Regarding B5, the concentration for a half-maximal effect (EC50 (read off the curve)) was approximately 10 nM in assay [7]; approximately 6 nM in assay [8]; approximately 1 nM in [9]; approximately 2 nM in assay [11]; approximately 7 nM in assay [12]; approximately 9 nM in [13]. The “EC50 (read off the curve)” value in [16] was approximately 4 nM; in assay [17], approximately 6 nM. For the same molecule, the Kd in assay [10] is 0.28 nM; in assay [14], 0.285 nM; in assay [15], 0.231 nM.
